T1: IL-2 receptor (IL-2Rα, IL-2Rβ and IL-2Rγ) on cells (human, UniProt P01589 22-272; P14784 27-551; P31785 23-369)
T1 sequence (looked up) 1: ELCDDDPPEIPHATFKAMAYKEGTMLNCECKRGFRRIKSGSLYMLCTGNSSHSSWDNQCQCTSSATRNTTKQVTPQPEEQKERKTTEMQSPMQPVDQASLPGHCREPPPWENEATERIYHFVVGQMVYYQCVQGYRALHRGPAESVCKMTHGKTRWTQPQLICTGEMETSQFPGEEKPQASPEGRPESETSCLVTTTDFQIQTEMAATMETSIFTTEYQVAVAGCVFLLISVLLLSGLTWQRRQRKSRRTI
T1 sequence (looked up) 2: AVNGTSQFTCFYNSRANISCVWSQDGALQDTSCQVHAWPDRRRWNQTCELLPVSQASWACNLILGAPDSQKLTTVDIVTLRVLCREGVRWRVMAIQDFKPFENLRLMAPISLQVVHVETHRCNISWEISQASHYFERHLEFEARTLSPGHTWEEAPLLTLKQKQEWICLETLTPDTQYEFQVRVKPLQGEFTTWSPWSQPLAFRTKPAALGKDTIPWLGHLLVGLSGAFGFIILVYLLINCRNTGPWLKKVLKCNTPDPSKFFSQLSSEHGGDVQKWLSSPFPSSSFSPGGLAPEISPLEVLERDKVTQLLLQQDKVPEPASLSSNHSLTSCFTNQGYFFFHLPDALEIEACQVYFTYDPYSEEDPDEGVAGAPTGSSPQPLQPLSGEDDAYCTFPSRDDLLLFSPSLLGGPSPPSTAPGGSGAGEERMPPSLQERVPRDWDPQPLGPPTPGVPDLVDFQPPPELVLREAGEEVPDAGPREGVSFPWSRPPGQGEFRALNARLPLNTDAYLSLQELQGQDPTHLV
T1 sequence (looked up) 3: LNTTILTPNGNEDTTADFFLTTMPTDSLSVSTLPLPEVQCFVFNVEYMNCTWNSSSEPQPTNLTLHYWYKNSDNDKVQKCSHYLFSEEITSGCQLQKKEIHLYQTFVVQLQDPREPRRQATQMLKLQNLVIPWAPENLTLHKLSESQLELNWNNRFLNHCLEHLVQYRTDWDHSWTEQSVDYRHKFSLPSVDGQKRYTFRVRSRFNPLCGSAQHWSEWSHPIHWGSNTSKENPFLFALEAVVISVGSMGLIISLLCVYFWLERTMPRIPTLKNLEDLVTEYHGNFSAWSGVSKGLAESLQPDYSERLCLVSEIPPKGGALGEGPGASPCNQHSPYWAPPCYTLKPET

T2: IL-2 receptor α subunit (IL-2Rα, CD25) on Kit225 cells (human, UniProt P01589 22-272)
T2 construct: whole, on cells; Kit225 cells express all three IL-2 receptor subunits, with IL-2Rα in ~10 fold excess; also called p55
T2 sequence (looked up): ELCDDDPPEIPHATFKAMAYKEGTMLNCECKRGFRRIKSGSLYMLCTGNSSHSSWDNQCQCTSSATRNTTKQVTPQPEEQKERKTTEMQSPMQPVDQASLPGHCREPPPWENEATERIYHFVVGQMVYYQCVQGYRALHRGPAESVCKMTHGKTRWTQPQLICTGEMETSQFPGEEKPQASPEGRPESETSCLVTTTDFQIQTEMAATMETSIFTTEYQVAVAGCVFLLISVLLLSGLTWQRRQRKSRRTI


Experiments:
[1] = target: T1, IL-2 receptor (IL-2Rα, IL-2Rβ and …); assay: cell-based or functional assay
[2] = target: T2, IL-2 receptor α subunit (IL-2Rα, CD25) …; assay: cell surface titration on Kit225 cells, flow cytometry with anti-FLAG detection
Procedure: Determination of IL-2Rα binding affinities of IL-2 mutants. […] At low IL-2 mutant concentrations, the total volume was increased to maintain an excess number of IL-2 mutant molecules over the number of IL-2Rα. After incubation, cells were kept on ice and stained with mouse anti-FLAG monoclonal antibody M2 (Sigma Aldrich, St. Louis, Mo.), followed by an Alexa Fluor 488 conjugated goat anti-mouse antibody (Invitrogen, Carlsbad, Calif.), to detect cell-surface bound protein. The mean single-cell fluorescence was measured, and the dissociation constant (K_D) and the 95% confidence interval were determined as previously described, using the following equation: Fobs = cL_0/(K_D + L_0), where $Fobs$ is the background-corrected mean fluorescence, L_0 is the initial concentration of the protein being measured, and c is the proportionality constant.
The IL-2Rα binding affinity of the IL-2 mutants was measured in using Kit225 cells, a human T cell line that is dependent on IL-2 for growth. Kit225 constitutively expresses all three subunits of the IL-2 receptor, with IL-2Rα in ~10 fold excess. The IL-2Rα binding affinity was measured using cell surface titrations on Kit225.

[3] = target: T2, IL-2 receptor α subunit (IL-2Rα, CD25) …; assay: cell surface titration on Kit225 cells (method not restated for the double mutant)

IC50 of inhibition of STAT5 phosphorylation in Kit225 cells with 25 pM wild type IL-2 [1] | Kd [2] | Kd [3] | Binder
1.9 nM | 0.109 nM | – | Q126T (2-4 IL-2 with a Q126T point mutation) (ligand) APTSSSTKKTQLQLEHLLLDLQMILNGISNHKNPRLARMLTFKFYMPEKATELKHLQCLEEELKPLEEALRLAPSKNFHLRPRDLISDVNVIVLELKGSETTFMCEYADETATIVEFLNRWITFCTSIISTLT
2.4 nM | 0.119 nM | – | V91R (2-4 IL-2 with a V91R point mutation) (ligand) APTSSSTKKTQLQLEHLLLDLQMILNGISNHKNPRLARMLTFKFYMPEKATELKHLQCLEEELKPLEEALRLAPSKNFHLRPRDLISDVNRIVLELKGSETTFMCEYADETATIVEFLNRWITFCQSIISTLT
– | – | 2 nM | Q126T/V91R double mutant (ligand) APTSSSTKKTQLQLEHLLLDLQMILNGISNHKNPRLARMLTFKFYMPEKATELKHLQCLEEELKPLEEALRLAPSKNFHLRPRDLISDVNRIVLELKGSETTFMCEYADETATIVEFLNRWITFCTSIISTLT
– | 0.199 nM | – | 2-4 IL-2 (engineered mutant of human IL-2 with high affinity for IL-2Rα) (ligand) APTSSSTKKTQLQLEHLLLDLQMILNGISNHKNPRLARMLTFKFYMPEKATELKHLQCLEEELKPLEEALRLAPSKNFHLRPRDLISDVNVIVLELKGSETTFMCEYADETATIVEFLNRWITFCQSIISTLT

Reference: patent US8906356 (MIT, dated 2014)
